{AminoPEG9} = amino group attached through a PEG9 spacer, used for covalent surface attachment

For data set [1], the target named is T1, transcription factor GAL80 (Saccharomyces cerevisiae, UniProt P04387).
T1 sequence (P04387 1-435): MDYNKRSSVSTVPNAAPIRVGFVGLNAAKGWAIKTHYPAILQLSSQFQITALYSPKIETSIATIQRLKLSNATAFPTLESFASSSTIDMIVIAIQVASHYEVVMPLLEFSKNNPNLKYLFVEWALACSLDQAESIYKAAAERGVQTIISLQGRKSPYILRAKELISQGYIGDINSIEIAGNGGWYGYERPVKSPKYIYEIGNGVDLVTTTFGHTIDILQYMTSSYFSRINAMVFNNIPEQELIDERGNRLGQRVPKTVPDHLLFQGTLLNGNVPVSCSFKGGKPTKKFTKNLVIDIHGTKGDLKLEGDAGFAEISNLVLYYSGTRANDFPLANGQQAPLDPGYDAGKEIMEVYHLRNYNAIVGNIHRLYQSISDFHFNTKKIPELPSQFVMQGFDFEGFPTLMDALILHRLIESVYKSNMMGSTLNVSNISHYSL
The note with it: template peptide of the array; cited from earlier work.

In data set [2] the target is T2, transcription factor AP-1 (c-JUN) (Homo sapiens, UniProt P05412).
T2 construct: purchased Promega Corp (Madison, Wis.)
T2 sequence (P05412 whole entry): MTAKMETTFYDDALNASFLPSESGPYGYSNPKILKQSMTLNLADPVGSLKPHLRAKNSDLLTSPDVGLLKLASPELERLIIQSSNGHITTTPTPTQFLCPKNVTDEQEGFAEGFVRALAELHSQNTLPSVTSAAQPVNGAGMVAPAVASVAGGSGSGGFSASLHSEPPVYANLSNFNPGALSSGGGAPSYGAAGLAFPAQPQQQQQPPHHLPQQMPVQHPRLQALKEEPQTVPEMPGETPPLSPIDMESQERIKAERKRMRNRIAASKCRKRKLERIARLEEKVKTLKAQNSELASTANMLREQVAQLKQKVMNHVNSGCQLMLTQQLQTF
The experiment in a line: rhAP1 binding to DNA grafted polymer microstructures, in situ trypsin digest and MALDI-MS peptide mass fingerprinting. The settings on record: rhAP1 0.3 ug/ml 1:1 with buffer Z, 0.5 hrs at RT and 2 hrs at 4 C; identified by MALDI-MS, not in control. Here is the method:
This array was then washed with sterile water and a 1:1 mixture of rhAP1 protein 0.3 μg/ml and buffer Z (25 mM HEPES K+ pH 7.8, 12.5 mM MgCl2, 1 μM DTT, 20% glycerol, 0.1 Nonidet p40) and 2 μL was spotted onto all 5 microstructures. This was allowed to bind for 0.5 hrs at RT and 2 hrs at 4 C and then rinsed with sterile water at 4° C. The fluorescence was rechecked and the treatment spots were still fluorescent. 2 μL of a 1:100 dilution of 10 μg/mL trypsin in 25 mM ammonium carbonate and sterile water was spotted onto one feature and the array was left at 37° C. overnight.
A slightly subsaturated solution of α-cyano-4-hydroxycinnamic acid solution of 1:2 acetonitrile:water with 1% TFA was spotted, 2 μL per feature on to the array and left in hybridization chamber for 45 min. This was then dried and spotted with 1 μL of a saturated solution of α-cyano-4-hydroxycinnamic acid in 1:1 acetonitile:water with 0.1% TFA. […] Ions were only detected coming from the trypsin digest array element.
This array was then washed with sterile water and a 1:1 mixture of rhAP1 protein 0.3 ug/ml and buffer Z (25 mM HEPES K+ pH 7.8, 12.5 mM MgCl2, 1 uM DTT, 20% glycerol, 0.1 Nonidet p40) and 2 uL was spotted onto all 5 microstructures. […] The fluorescence was rechecked and the treatment spots were still fluorescent. […]

Turning to “EGEWTEGKLSLR [template for 8,000 array variants substituted at positions 1, 3, 6]”, in data set [1], the “binding to transcription factor GAL80” value was “known to bind”.

B1: Consensus DNA: covalently bound DNA containing three repeats of the consensus sequence for the transcription factor AP-1 (c-JUN), hybridized to Texas Red complement (nucleic acid)
DNA: CGCTTGATGAGTCAGCCGGAACGCTTGATGAGTCAGCCGGAACGCTTGATGAGTCAGCCGGAAGCTTCCGGTAAATTT
modifications: DNA, 5' {AminoPEG9}, backbone not given here; further chemistry not fully specified
On to B1, for which, in data set [2], the “binding of transcription factor AP-1 to immobilized consensus DNA” value is given as “bind the transcription factor AP-1”.

These data come from patent US20100056392A1, “MICROSTRUCTURE AND MICRODOMAIN MICROARRAYS, METHODS OF MAKING SAME AND USES THEREOF” (priority 2005, published 2010).
